“And” between values parts separate entries of the source, which are not always exact repeats. Equal entries are not always repeated.

Holding throughout (format): biochemical, human
Substrate in series [1]: NCCC(=O)c1ccccc1N
Nature of the series: Kynuramine oxidative deamination kinetics (saturation, optimization) with MAO-B. The settings on record: other: kynuramine 2-500 μM, 15 min, mean ± SEM; pH 7.4; 37.0 °C. Here is the method:
(§1) The optimized incubation time and human recombinant MAO concentration were selected in the linear range from the time-dependent and MAO concentration-dependent studies (Supplemental Data). Briefly, samples were prepared in potassium phosphate buffer (100 mM, pH 7.4) with a final concentration of MAO in the reaction solution of 0.01 mg/mL, incubated at 37°C for 15 min. Saturation of kynuramine metabolism with MAO-A/B was carried out at concentrations of 2, 5, 10, 25, 50, 100, 250, 500 μM. The enzymatic reactions (200μL) were stopped by 2 N NaOH (75 μL) followed with 70% perchloric acid (25 μL). The samples were vortexed and centrifuged for 5 min at 10,000×g. The supernatant was analyzed by HPLC as described above.
(§2) GraphPad Prism 5 was applied to fit a Michaelis-Menten model to the data to obtain the Km values in the saturation experiments. In the screening experiments, significant differences between control and treated group were determined by a one-way ANOVA followed by Dunnett's posttest (p < 0.05). […] The maximum single doses are from published sources. The relevant GI concentration is the lesser of either solubility or the concentration after a single dose. […]
(§3) Kynuramine (10 µM) was incubated with MAO-A (0.01 mg/mL) in 200 µL potassium phosphate buffer (100 mM, pH 7.4) for 10, 20, 30, 40, and 60 min. The formation of 4-hydroxyquinoline was analyzed after the enzymatic reaction. […]

Substrate in series [2]: NCCC(=O)c1ccccc1N
Nature of the series: Inhibition mechanism studies (competition, time dependence) with MAO-B. Particulars: other: competition study control, kynuramine 2-450 μM.

Substrate in series [3]: NCCC(=O)c1ccccc1N
Nature of the series: Kynuramine oxidative deamination kinetics (saturation, optimization) with MAO-A. The settings on record: other: kynuramine 2-500 μM, 15 min, mean ± SEM; pH 7.4; 37.0 °C. Here is the method:
as §1, §2, §3

Substrate in series [4]: NCCC(=O)c1ccccc1N
Nature of the series: Inhibition mechanism studies (competition, time dependence) with MAO-A. The settings on record: other: competition study control, kynuramine 2-450 μM.

B1: human recombinant MAO-B (Homo sapiens) (protein)
chain: MSNKCDVVVVGGGISGMAAAKLLHDSGLNVVVLEARDRVGGRTYTLRNQKVKYVDLGGSYVGPTQNRILRLAKELGLETYKVNEVERLIHHVKGKSYPFRGPFPPVWNPITYLDHNNFWRTMDDMGREIPSDAPWKAPLAEEWDNMTMKELLDKLCWTESAKQLATLFVNLCVTAETHEVSALWFLWYVKQCGGTTRIISTTNGGQERKFVGGSGQVSERIMDLLGDRVKLERPVIYIDQTRENVLVETLNHEMYEAKYVISAIPPTLGMKIHFNPPLPMMRNQMITRVPLGSVIKCIVYYKEPFWRKKDYCGTMIIDGEEAPVAYTLDDTKPEGNYAAIMGFILAHKARKLARLTKEERLKKLCELYAKVLGSLEALEPVHYEEKNWCEEQYSGGCYTTYFPPGILTQYGRVLRQPVDRIYFAGTETATHWSGYMEGAVEAGERAAREILHAMGKIPEDEIWQSEPESVDVPAQPITTTFLERHLPSVPGLLRLIGLTTIFSATALGFLAHKRGLLVRV
notes: purchased BD Biosciences (San Jose, CA) or Corning Discovery Labware (Woburn, MA)
In the case of B1, in series [1], the Km was 18.0 ± 2.3 µM and the Vmax amounted to 7.35 ± 0.69 nmol/min/mg.

B2: MAO-B (Homo sapiens) (protein)
chain: B1 chain
notes: as for B1
For B2, in series [2], the Michaelis-Menten constant (Km) worked out at 14.4 ± 1.2 µM and the Vmax came to 3.44 ± 0.07 nmol/min/mg protein.

B3: human recombinant MAO-A (Homo sapiens) (protein)
chain: MENQEKASIAGHMFDVVVIGGGISGLSAAKLLTEYGVSVLVLEARDRVGGRTYTIRNEHVDYVDVGGAYVGPTQNRILRLSKELGIETYKVNVSERLVQYVKGKTYPFRGAFPPVWNPIAYLDYNNLWRTIDNMGKEIPTDAPWEAQHADKWDKMTMKELIDKICWTKTARRFAYLFVNINVTSEPHEVSALWFLWYVKQCGGTTRIFSVTNGGQERKFVGGSGQVSERIMDLLGDQVKLNHPVTHVDQSSDNIIIETLNHEHYECKYVINAIPPTLTAKIHFRPELPAERNQLIQRLPMGAVIKCMMYYKEAFWKKKDYCGCMIIEDEDAPISITLDDTKPDGSLPAIMGFILARKADRLAKLHKEIRKKKICELYAKVLGSQEALHPVHYEEKNWCEEQYSGGCYTAYFPPGIMTQYGRVIRQPVGRIFFAGTETATKWSGYMEGAVEAGERAAREVLNGLGKVTEKDIWVQEPESKDVPAVEITHTFWERNLPSVSGLLKIIGFSTSVTALGFVLYKYKLLPRS
notes: as for B1
For the protein B3, in series [3], the Michaelis-Menten constant (Km) is 23.1 ± 0.8 µM and 23 µM; the Vmax is 10.2 ± 0.2 nmol/min/mg.

B4: MAO-A (Homo sapiens) (protein)
chain: B3 chain
notes: as for B1
B4: in series [4], the Km was found to be 8.46 ± 1.56 µM and the Vmax is recorded as 17.4 ± 0.7 nmol/min/mg protein.
